Data published in patent US8709741B2, “Methods of diagnosing a plasmodium infection” (priority 2009, dated 2014).
Entries after “also recorded” stand apart in the source; their conditions may differ. Read-outs that look alike come from different tables or passages of the source.

B1: IIA: recombinant human group IIA secreted phospholipase A2 (inflammatory type) (protein, UniProt P14555 21-144, looked up)
Phospholipase A2, membrane …: NLVNFHRMIKLTTGKEAALSYGFYGCHCGVGGRGSPKDATDRCCVTHDCCYKRLEKRGCGTKFLSYKFSNSGSRITCAKQDSCRSQLCECDKAAATCFARNKTTYNKKYQYYSNKHCRGSTPRC
B2: IIE: recombinant human group IIE secreted phospholipase A2 (protein, UniProt Q9NZK7 20-142, looked up)
Group IIE secretory …: NLVQFGVMIEKMTGKSALQYNDYGCYCGIGGSHWPVDQTDWCCHAHDCCYGRLEKLGCEPKLEKYLFSVSERGIFCAGRTTCQRLTCECDKRAALCFRRNLGTYNRKYAHYPNKLCTGPTPPC
B3: III: recombinant human group III secreted phospholipase A2 (protein, UniProt Q9NZ20 20-509, looked up)
Group 3 secretory …: GSPALRWYRTSCHLTKAVPGNPLGYLSFLAKDAQGLALIHARWDAHRRLQSCSWEDEPELTAAYGALCAHETAWGSFIHTPGPELQRALATLQSQWEACRALEESPAGARKKRAAGQSGVPGGGHQREKRGWTMPGTLWCGVGDSAGNSSELGVFQGPDLCCREHDRCPQNISPLQYNYGIRNYRFHTISHCDCDTRFQQCLQNQHDSISDIVGVAFFNVLEIPCFVLEEQEACVAWYWWGGCRMYGTVPLARLQPRTFYNASWSSRATSPTPSSRSPAPPKPRQKQHLRKGPPHQKGSKRPSKANTTALQDPMVSPRLDVAPTGLQGPQGGLKPQGARWVCRSFRRHLDQCEHQIGPREIEFQLLNSAQEPLFHCNCTRRLARFLRLHSPPEVTNMLWELLGTTCFKLAPPLDCVEGKNCSRDPRAIRVSARHLRRLQQRRHQLQDKGTDERQPWPSEPLRGPMSFYNQCLQLTQAARRPDRQQKSWSQ
B4: XIIA: recombinant human group XIIA secreted phospholipase A2 (protein, UniProt Q9BZM1 23-189, looked up)
Group XIIA secretory …: QEQAQTTDWRATLKTIRNGVHKIDTYLNAALDLLGGEDGLCQYKCSDGSKPFPRYGYKPSPPNGCGSPLFGVHLNIGIPSLTKCCNQHDRCYETCGKSKNDCDEEFQYCLSKICRDVQKTLGLTQHVQACETTVELLFDSVIHLGCKPYLDSQRAACRCHYEEKTDL
B5: XIIB: recombinant human group XIIB sPLA2-like protein (protein, UniProt Q9BX93 20-195, looked up)
Group XIIB secretory …: QSDTSPDTEESYSDWGLRHLRGSFESVNSYFDSFLELLGGKNGVCQYRCRYGKAPMPRPGYKPQEPNGCGSYFLGLKVPESMDLGIPAMTKCCNQLDVCYDTCGANKYRCDAKFRWCLHSICSDLKRSLGFVSKVEAACDSLVDTVFNTVWTLGCRPFMNSQRAACICAEEEKEEL
B6: IIF: recombinant human group IIF secreted phospholipase A2, full length (protein, UniProt Q9BZM2 21-168, looked up)
Group IIF secretory …: SLLNLKAMVEAVTGRSAILSFVGYGCYCGLGGRGQPKDEVDWCCHAHDCCYQELFDQGCHPYVDHYDHTIENNTEIVCSDLNKTECDKQTCMCDKNMVLCLMNQTYREEYRGFLNVYCQGPTPNCSIYEPPPEEVTCSHQSPAPPAPP
B7: V: recombinant human group V secreted phospholipase A2 (protein, UniProt P39877 21-138, looked up)
Phospholipase A2 group V: GLLDLKSMIEKVTGKNALTNYGFYGCYCGWGGRGTPKDGTDWCCWAHDHCYGRLEEKGCNIRTQSYKYRFAWGVVTCEPGPFCHVNLCACDRKLVYCLKRNLRSYNPQYQYFPNILCS

Legend:
[1] = test system: P. falciparum FcB1/Colombian strain; assay: Anti-Plasmodium activity assay (dose-response, 3H-hypoxanthine incorporation), culture with human serum; format: cell-based; settings: for inhibition of P. falciparum development in vitro: standard P. falciparum cultures with serum
Description: (§1) The chloroquine-resistant P. falciparum FcB1/Colombian strain was used. Under the following culture conditions, the in vitro life cycle of the FcB1 strain was 48 hours. Cultures were grown in complete medium consisting of RPMI 1640 (Life Technologies, Inc.) supplemented with 11 mM glucose, 27.5 mM NaHCO3, 100 UI/mL penicillin, 100 μg/mL streptomycin, adjusted to pH 7.4 before addition of heat-inactivated human serum (A+ blood group, 8% final) or Albumax II® (0.5% final), according to the procedure of Trager and Jensen (1976). Parasites were routinely grown at 37° C. in human A+ RBCs (Red blood cells) at a 2% haematocrit and 2-6% parasitemia, in a 3% CO2, 6% O2 and 91% N2 atmosphere. Semi-synchronized cultures were established by Sorbitol (Lambros) treatment. Highly synchronized cultures (4 hour-window synchronization) were obtained by successive Plamion (Pasvol) and Sorbitol treatments. Parasitaemia and stage distribution were determined by optical examination of Diff-Quick stained culture smears. Parasitaemia (expressed in percent) is hundred times the number of parasitized erythrocytes divided by the total number of erythrocytes.
(§2) Dried preparations of the purified recombinant human sPLA2s were re-suspended at high concentration (usually 50 μM) in RPMI 0.05% BSA, and then tested individually for their capacity to inhibit the in vitro intra-erythrocytic development of P. falciparum. Dose-response assays based on ^3H-hypoxanthine incorporation by growing parasites were performed as in Guillaume et al. (2004). Radioactivity was measured with a 1450 Microbeta counter (Wallac, Perkin Elmer). Percentage of growth inhibition was calculated from the parasite-associated radioactivity compared with control without sPLA2. Values for the IC50 were determined from dose-response curves.

[2] = Rosengren et al., 2006; cited from earlier work
[3] = Specific activities of sPLA2s on human plasma (NEFA release, NEFA-C kit); format: biochemical; settings: for Specific activity ± SD (μmol NEFA/min × mg enzyme): whole human plasma, 37° C., linear part of kinetic curve, mean of three experiments
Description: Kinetic analysis of human plasma hydrolysis by sPLA2s was performed by mixing on ice 50 μL of crude plasma with recombinant sPLA2s at various final concentrations (respectively 2×, 5× and 10× the IC50 value). At time zero, the mixture was transferred to 37° C. Samples (7 μL) were taken after 5, 15, 30 and 60 minutes of incubation and quickly frozen at −20° C. An aliquot of plasma without enzyme was similarly processed. Concentration of non-esterified fatty acids (NEFAs) in each sample was measured by a discontinuous enzymatic method using the NEFA-C test kit from WAKO, following manufacturer's instructions. The amount of NEFAs in each enzyme-containing plasma sample was subtracted for NEFAs in enzyme-free plasma sample. Specific activity for each of the sPLA2s was determined from the linear part of the curve [NEFA]=f(t). Experiment was repeated three times with plasmas from different donors and different batches of sPLA2s.
Specific activities of sPLA2s on human plasma. Hydrolysis of plasma phospholipids by human and venom sPLA2s was assayed using different incubation times and enzymes concentrations. Hydrolysis was assessed by measuring the amount of NEFAs in samples using the colorimetric assay developed by WAKO (NEFA-C kit). Enzymatic production of NEFAs was corrected for endogenous production of NEFAs measured in the absence of sPLA2. Specific activity for each of the sPLA2s was determined from the linear part of the kinetic curve. Values are the mean of three independent experiments. SD: standard deviation. Anti-P. falciparum activities (IC50) of the respective sPLA2s are given for comparison.

P. falciparum = assay: Anti-Plasmodium activity assay in Albumax II (serum substitute); format: cell-based; settings: Albumax II instead of serum
Description: as §1, with “Highly synchronized cultures (4 hour-window synchronization) were obtained by successive Plamion (Pasvol) and Sorbitol treatments.” left out, “Parasitaemia (expressed in percent) is hundred times the number of parasitized erythrocytes divided by the total number of erythrocytes.” left out
as §2, with “Dose-response assays based on ^3H-hypoxanthine incorporation by growing parasites were performed as in Guillaume et al. (2004).” left out, “curves. […]” for “curves.”

[4] = Enzymatic hydrolysis of purified lipoproteins (NEFA); format: biochemical, human; settings: 15 h at 37° C.
Description: CM/VLDL, LDL and HDL were purified from human plasma and used either fresh (F) or after minimal oxidization by air and light (Ox). After phospholipid content determination, plasma, LDL and HDL were adjusted to 1.6 mg PL/mL final concentration in PBS calcium. Because low amount was available, the CM/VLDL fraction was adjusted to 1.0 mg PL/mL. Each sample was incubated for 15 hours at 37° C., alone or in the presence of recombinant human GX sPLA2 (hGX PLA2; 25 nM), recombinant human GIIF sPLA2 (hGIIF PLA2; 125 nM), bee venom sPLA2 (bvPLA2; 0.18 nM) and Naja mossambica mossambica venom sPLA2 (Naja PLA2; 0.05 nM). NEFAs were quantified using the NEFA-C kit (WAKO). Values are the mean±SD of triplicate measurements. They were normalized by subtracting NEFA amount in the absence of enzyme. Two independent experiments with lipoproteins from different plasmas were performed, which gave similar qualitative results. Results from one experiment are shown;
Plasma and purified LDL and HDL were adjusted to 1.67 mg phospholipid (PL)/mL final concentration in PBS. Because purification yielded low amount of CM/VLDL, the CM/VLDL fraction was adjusted to 1.00 mg PL/mL. CaCl2 (1 mM final) was added to the lipoprotein fractions. 200 μL of each fraction were deposited in a 96-well plate and incubated for 15 hours at 37° C., alone or in the presence of recombinant human GX sPLA2 (hGX PLA2, 25.0 nM), recombinant human GIIF sPLA2 (hGIIF PLA2, 125.0 nM), bee venom sPLA2 (bvPLA2, 0.18 nM) and Naja mossambica mossambica venom sPLA2 (Naja PLA2, 0.05 nM). NEFAs were measured in triplicate using the NEFA-C kit (WAKO). Value from each fraction was normalized by subtracting the NEFA amount in the corresponding fraction without enzyme. Two independent experiments with lipoproteins from different plasmas were performed, which gave similar qualitative results. According to the experiment, maximum hydrolysis reached 50% or 65% of total PLs in the fraction. […]

[5] = culture in human red blood cells and serum, mean of independent dose-response assays, read-out: IC50 ± SD (anti-P. falciparum activity)
[6] = Table II, read-out: IC50 (nM), anti-P. falciparum activity given for comparison

| Molecule | IC50 [1, 5] | inhibition of P. falciparum development in vitro [1] | further results |
| --- | --- | --- | --- |
| IID: recombinant human group IID secreted phospholipase A2 | > 250 nM | non-toxic | – |
| IB: recombinant human group IB secreted phospholipase A2 | > 1250 nM | non-toxic | – |
| B1 | > 1250 nM | – | hydrolysis of serum [2]: found inactive; inhibition of P. falciparum development in vitro ([1]; listed as GIIA): non-toxic; inhibition of P. falciparum development in vitro ([1]; listed as GIIA sPLA2): clearly inactive; also recorded: does not exhibit any inhibitory activity; hydrolysis of plasma ([3]; high concentration (1 μM), not shown): inefficient at hydrolysing plasma |
| B2 | > 250 nM | non-toxic | – |
| B3 | – | non-toxic | – |
| B4 | > 250 nM | non-toxic | – |
| B5 | > 250 nM | non-toxic | – |
| B6 | 14.3 ± 10.4 nM | active against P. falciparum | increase of IC50 value in Albumax II relative to its value in serum (P. falciparum): approximately 17.5 fold; hydrolysis of triglyceride-rich lipoproteins (CM/VLDL) ([4]; 125 nM): hydrolysed poorly; preferential order of lipoprotein hydrolysis ([4]; each sPLA2 at approximately 10×IC50): same preferential order than GX sPLA2; IC50 [1, 6]: 14.3 ± 13.4 nM; Specific activity ± SD (μmol NEFA/min × mg enzyme) [3]: 0.92 ± 0.30 μmol NEFA/min × mg enzyme |
| B7 | 162 ± 90.9 nM | active against P. falciparum | hydrolysis of serum [2]: found active; IC50 [1, 6]: 162 ± 90.9 nM; Specific activity ± SD (μmol NEFA/min × mg enzyme) [3]: 0.33 ± 0.09 μmol NEFA/min × mg enzyme |
